Test results from the RNAGym collection of RNA variant scans (doi:10.1093/molbev/msab373).

B1: Azoarcus group I ribozyme (parent)
chain: GUGCCUUGCGCCGGGAAACCACGCAAGGGAUGGUGUCAAAUUCGGCGAAACCUAAGCGCCCGCCCGGGCGUAUGGCAACGCCGAGCCAAGCUUCGGCGCCUGCGCCGAUGAAGGUGUAGAGACUAGACGGCACCCACCUAAGGCAAACGCUAUGGUGAAGGCAUAGUCCAGGGAGUGGCGAAAGUCACACAAACCGG

Variants of: B1
Experiment: reverse-splicing fitness (ratio to wild type); higher = more active; in vitro selection; Mg2+ level not given
Outline: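 An in vitro group I ribozyme library with randomized positions was T7-transcribed and gel-purified. In triplicate, 10 pmol RNA in EPPS pH 7.5 was reacted with 50 pmoles of a 30-nt RNA substrate for 1 h at 37 °C across several added MgCl2 levels (1–48 mM), then stopped with EDTA. Products were reverse transcribed from a substrate-complementary primer, PCR-amplified and sequenced (HiSeq 4000). Fitness is a variant's read proportion after selection over that before, normalised to wild type.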

Row | Variant | reverse-splicing fitness
1 | A120U C150A C169U U176C | 0.0195
2 | A120U C150A C169U U176A | 0.0178
3 | A120U C150A C169U U176G | 0.00432
4 | A145G C150G C169U U176C | 0.0454
5 | A145G C150G C169U U176G | 0.00808
6 | A145G C150G C169U U176A | 0.0192
7 | A145C U176C | 0.843
8 | A145C U176A | 0.767
9 | A145C U176G | 0.411
10 | A145C C169U U176G | 0.0117
11 | A145C C169U U176A | 0.106
12 | A145C C169U U176C | 0.156
13 | A145G C150A C169G | 0.0594
14 | A145G C150A C169U | 0.0924
15 | A145G C150A C169A | 0.0304
16 | A145C C169G | 0.26
17 | A145C C169U | 0.351
18 | A145C C169A | 0.167
19 | A145C C169G U176A | 0.0744
20 | A145C C169G U176C | 0.116
21 | A145C C169G U176G | 0.00875
22 | A120U C169A | 0.0174
23 | A120U C169U | 0.257
24 | A120U C169G | 0.262

Row | Variant | reverse-splicing fitness
25 | A145G C150A C169A U176C | 0.031
26 | A145G C150A C169A U176A | 0.0203
27 | A145G C150A C169A U176G | 0.00608
28 | A145C C169A U176A | 0.029
29 | A145C C169A U176G | 0.00461
30 | A145C C169A U176C | 0.05
31 | A120U C150A C169G U176A | 0.0106
32 | A120U C150A C169G U176G | 0.00249
33 | A120U C150A C169G U176C | 0.0141
34 | A145G C150A U176C | 0.464
35 | A145G C150A U176A | 0.472
36 | A145G C150A U176G | 0.184
37 | A120U C150U C169A | 0.0111
38 | A120U C150U C169G | 0.15
39 | A120U C150U C169U | 0.203
40 | A145G C150A C169U U176C | 0.0583
41 | A145G C150A C169U U176G | 0.00772
42 | A145G C150A C169U U176A | 0.0484
43 | A145C C150G U176C | 0.388
44 | A145C C150G U176G | 0.114
45 | A145C C150G U176A | 0.364
46 | A120U C150G C169A U176G | 0.00242
47 | A120U C150G C169A U176C | 0.00332
48 | A120U C150G C169A U176A | 0.00468

Row | Variant | reverse-splicing fitness
49 | A145C C150A U176G | 0.14
50 | A145C C150A U176A | 0.217
51 | A145C C150A U176C | 0.206
52 | A145C C150G C169U | 0.0739
53 | A145C C150G C169A | 0.0221
54 | A145C C150G C169G | 0.0445
55 | A120U C150U C169A U176A | 0.0051
56 | A120U C150U C169A U176C | 0.00368
57 | A120U C150U C169A U176G | 0.00183
58 | A145C C150G C169U U176C | 0.0427
59 | A145C C150G C169U U176G | 0.00549
60 | A145C C150G C169U U176A | 0.0183
61 | A120U C150A C169A U176A | 0.00376
62 | A120U C150A C169A U176C | 0.00333
63 | A120U C150A C169A U176G | 0.00205
64 | A145C C150U C169A U176A | 0.0158
65 | A145C C150U C169A U176G | 0.00607
66 | A145C C150U C169A U176C | 0.0196
67 | A145G C150U C169A U176A | 0.0281
68 | A145G | 0.958
69 | A145C | 0.95
70 | A120U U176A | 0.66
71 | A120U U176G | 0.421
72 | A120U U176C | 0.678

Row | Variant | reverse-splicing fitness
73 | A145C C150U U176A | 0.613
74 | A145C C150U U176G | 0.308
75 | A145C C150U U176C | 0.596
76 | A120U C150U U176A | 0.62
77 | A120U C150U U176C | 0.556
78 | A120U C150U U176G | 0.222
79 | A145G C150G U176A | 0.256
80 | A145G C150G U176C | 0.371
81 | A145G C150G U176G | 0.0658
82 | A145G C150G | 0.48
83 | A145G C150A | 0.582
84 | A145G C150U | 0.93
85 | A145G C150U C169A | 0.136
86 | A145C C150G C169G U176C | 0.00959
87 | A145C C150G C169G U176G | 0.00537
88 | A145C C150G C169G U176A | 0.0135
89 | A120U A145U C169U U176G | 0.0134
90 | A120U C150U C169U U176C | 0.083
91 | A120U C150U C169U U176G | 0.00872
92 | A120U C150U C169U U176A | 0.0605
93 | A145C C150A C169G U176G | 0.00531
94 | A145C C150A C169G U176A | 0.0271
95 | A145C C150A C169G U176C | 0.0203
96 | A145C C150U C169G | 0.0825

Row | Variant | reverse-splicing fitness
97 | A145C C150U C169U | 0.122
98 | A145C C150U C169A | 0.0428
99 | A145G C150G C169A U176C | 0.0194
100 | A145G C150G C169A U176A | 0.0133
101 | A145G C150G C169A U176G | 0.00779
102 | A145G C150G C169A | 0.0272
103 | A145G C150G C169U | 0.0734
104 | A145G C150G C169G | 0.0446
105 | A120U C150A U176G | 0.0831
106 | A120U C150A U176C | 0.172
107 | A120U C150A U176A | 0.178
108 | A145C C150G C169A U176C | 0.0118
109 | A145C C150G C169A U176G | 0.00491
110 | A145C C150G C169A U176A | 0.00984
111 | A145C C150A C169A U176G | 0.00533
112 | A145C C150A C169A U176C | 0.00805
113 | A145C C150A C169A U176A | 0.0107
114 | A120U C169U U176C | 0.139
115 | A120U C169U U176A | 0.0922
116 | A120U C169U U176G | 0.0138
117 | A145C C150A | 0.321
118 | A145C C150G | 0.525
119 | A145C C150U | 0.695
120 | A120U C150G U176G | 0.0108

Row | Variant | reverse-splicing fitness
121 | A120U C150G U176C | 0.115
122 | A120U C150G U176A | 0.0739
123 | A120U C150U C169G U176G | 0.00278
124 | A120U C150U C169G U176C | 0.0569
125 | A120U C150U C169G U176A | 0.0257
126 | A120U C150U | 0.774
127 | A120U C150G | 0.206
128 | A120U C150A | 0.245
129 | A120U C150G C169U U176A | 0.00472
130 | A120U C150G C169U U176G | 0.00276
131 | A120U C150G C169U U176C | 0.0154
132 | A120U C150G C169U | 0.0339
133 | A120U C150G C169A | 0.00834
134 | A120U C150G C169G | 0.0252
135 | A120U C169G U176G | 0.00332
136 | A120U C169G U176C | 0.0915
137 | A120U C169G U176A | 0.0354
138 | A145G C150A C169G U176C | 0.0517
139 | A145G C150A C169G U176G | 0.00527
140 | A145G C150A C169G U176A | 0.0321
141 | A120U C150A C169G | 0.0291
142 | A120U C150A C169U | 0.038
143 | A120U C150A C169A | 0.00484
144 | A120U C169A U176G | 0.00204

Row | Variant | reverse-splicing fitness
145 | A120U C169A U176A | 0.00399
146 | A120U C169A U176C | 0.00594
147 | A145C C150A C169U U176C | 0.0218
148 | A145C C150A C169U U176G | 0.00589
149 | A145C C150A C169U U176A | 0.023
150 | A145G C150G C169G U176G | 0.00608
151 | A145G C150G C169G U176A | 0.014
152 | A145G C150G C169G U176C | 0.0156
153 | A145C C150A C169G | 0.0208
154 | A145C C150A C169A | 0.0125
155 | A145C C150A C169U | 0.0286
156 | A145C C150U C169G U176A | 0.0403
157 | A145C C150U C169G U176C | 0.0444
158 | A145C C150U C169G U176G | 0.00658
159 | A145C C150U C169U U176C | 0.0741
160 | A145C C150U C169U U176G | 0.00838
161 | A145C C150U C169U U176A | 0.0513
162 | A120U A145U U176G | 0.328
163 | A120U A145U U176C | 0.642
164 | A120U A145U U176A | 0.681
165 | A120U C150G C169G U176C | 0.0024
166 | A120U C150G C169G U176G | 0.00248
167 | A120U C150G C169G U176A | 0.00487
